Data reported in patent US10428140B2, “Anti-EphA4 antibody” (EISAI R&D MANAGEMENT CO., LTD., priority 2015, dated 2019).

T1: human EphB6 (Homo sapiens, UniProt O15197)
T1 construct: a protein of the extracellular region of each human Eph receptor fused with the SEAP protein and the His tag; made in house; host or cells: Expi293F cells
T1 sequence (O15197 32-594 limits assumed): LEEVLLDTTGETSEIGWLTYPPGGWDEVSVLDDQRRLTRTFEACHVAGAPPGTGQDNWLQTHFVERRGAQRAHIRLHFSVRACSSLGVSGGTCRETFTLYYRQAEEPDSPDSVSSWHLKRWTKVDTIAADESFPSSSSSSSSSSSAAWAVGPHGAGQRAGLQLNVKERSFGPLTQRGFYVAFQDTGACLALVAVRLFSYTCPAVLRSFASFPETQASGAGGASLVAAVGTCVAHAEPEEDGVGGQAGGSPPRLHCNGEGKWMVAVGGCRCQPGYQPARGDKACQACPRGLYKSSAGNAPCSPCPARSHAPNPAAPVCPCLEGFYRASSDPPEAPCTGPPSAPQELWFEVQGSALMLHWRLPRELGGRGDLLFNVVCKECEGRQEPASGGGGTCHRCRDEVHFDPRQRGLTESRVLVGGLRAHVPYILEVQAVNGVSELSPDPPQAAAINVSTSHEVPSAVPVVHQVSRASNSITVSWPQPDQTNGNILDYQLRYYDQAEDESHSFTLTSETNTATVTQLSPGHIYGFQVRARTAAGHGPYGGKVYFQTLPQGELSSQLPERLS

T2: human EphA6 (Homo sapiens, UniProt Q9UF33)
T2 construct: a protein of the extracellular region of each human Eph receptor fused with the SEAP protein and the His tag; made in house; host or cells: Expi293F cells (culture supernatant)
T2 sequence (Q9UF33 23-550 limits assumed): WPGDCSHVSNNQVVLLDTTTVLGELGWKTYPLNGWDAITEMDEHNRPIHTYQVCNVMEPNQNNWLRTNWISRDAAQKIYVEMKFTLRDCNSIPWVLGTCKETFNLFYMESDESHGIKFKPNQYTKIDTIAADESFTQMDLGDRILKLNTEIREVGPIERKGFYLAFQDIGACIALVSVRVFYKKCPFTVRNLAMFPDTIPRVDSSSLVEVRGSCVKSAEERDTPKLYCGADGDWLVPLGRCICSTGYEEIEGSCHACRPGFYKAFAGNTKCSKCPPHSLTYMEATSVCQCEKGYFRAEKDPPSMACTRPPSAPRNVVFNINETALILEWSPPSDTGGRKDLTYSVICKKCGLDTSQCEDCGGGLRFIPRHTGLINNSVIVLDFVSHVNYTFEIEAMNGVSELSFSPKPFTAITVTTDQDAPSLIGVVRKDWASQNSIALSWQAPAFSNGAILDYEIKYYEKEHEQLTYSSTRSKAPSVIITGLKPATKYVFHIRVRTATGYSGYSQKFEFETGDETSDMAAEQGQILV

T3: human EphA10 (Homo sapiens, UniProt Q5JZY3)
T3 construct: a protein of the extracellular region of each human Eph receptor fused with the SEAP protein and the His tag; made in house; host or cells: Expi293F cells (culture supernatant)
T3 sequence (Q5JZY3 34-565 limits assumed): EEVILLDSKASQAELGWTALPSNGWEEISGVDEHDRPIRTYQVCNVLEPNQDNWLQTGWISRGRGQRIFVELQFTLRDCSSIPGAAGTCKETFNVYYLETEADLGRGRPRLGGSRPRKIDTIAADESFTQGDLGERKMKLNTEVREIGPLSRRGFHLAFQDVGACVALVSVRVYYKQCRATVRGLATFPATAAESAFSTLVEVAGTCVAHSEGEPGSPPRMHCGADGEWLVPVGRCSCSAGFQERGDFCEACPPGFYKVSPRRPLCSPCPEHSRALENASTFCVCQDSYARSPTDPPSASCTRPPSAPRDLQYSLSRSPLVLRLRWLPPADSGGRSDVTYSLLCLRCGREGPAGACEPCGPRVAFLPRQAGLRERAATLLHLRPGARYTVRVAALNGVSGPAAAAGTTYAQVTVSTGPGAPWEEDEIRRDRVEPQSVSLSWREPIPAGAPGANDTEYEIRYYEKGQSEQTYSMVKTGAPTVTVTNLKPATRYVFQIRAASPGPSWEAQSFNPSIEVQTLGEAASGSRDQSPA


Tests used:
Experiment in all cases: Selectivity ELISA of humanized antibodies for human Eph receptor
Format in all cases: binding
Settings in all cases: coated protein 1 nM
[1] = biological target: T1, human EphB6
How it was run: (§1)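 His-tagged SEAP fusions of each human Eph receptor extracellular region, from Expi293F supernatants, were captured at 1 nM on anti-His-coated wells. Humanized antibody was bound 1 h at room temperature, then detected with HRP […] IgG. TMB development was acid-stopped and read at 450 nm.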

[2] = biological target: T2, human EphA6
How it was run: as §1

[3] = biological target: T3, human EphA10
How it was run: as §1

Molecule | hEphB6-SEAP-: absorbance at 450 nm, percentage with respect to hEphA4-SEAP-His as 100% [1] [%] | hEphA6-SEAP-: absorbance at 450 nm, percentage with respect to hEphA4-SEAP-His as 100% [2] [%] | hEphA10-SEAP-: absorbance at 450 nm, percentage with respect to hEphA4-SEAP-His as 100% [3] [%]
91 (antibody, V domains shown, constant regions without entry; synthetic humanized antibody light chain variable region sequence; synthetic humanized antibody heavy chain variable region sequence) VL: DIQMTQSPSSLSASVGDRVTITCRASENIYRNLAWYQQKPGKAPQLLLYAATNLADGVPSRFSGSGSGTDYTLTISSLQPEDFATYYCQHFWGTPWTFGQGTKVEIK VH: QVQLVQSGSELKKPGASVKVSCKASGYTFTDYSMHWVRQAPGQGLKWMGWINTETGEPTYADDFKGRFVFSLDTSVSTAYLQISSLKAEDTAVYYCARIPLYYYGSRYWYFDVWGQGTTVTVSS | 6.3 | 8.8 | 8.5
92 (antibody, V domains shown, constant regions without entry; synthetic humanized antibody light chain variable region sequence; synthetic humanized antibody heavy chain variable region sequence) VL: DIQMTQSPSSLSASVGDRVTITCRASENIYRNLAWYQQKPGKAPQLLLYAATNLADGVPSRFSGSGSGTDYTLTISSLQPEDFATYYCQHFWGTPWTFGQGTKVEIK VH: QIQLVQSGSELKKPGASVKVSCKASGYTFTDYSMHWVRQAPGQGLKWMGWINTETGEPTYADDFKGRFVFSLDTSVSTAYLQISSLKAEDTAVYYCARIPLYYYGSRYWYFDVWGQGTTVTVSS | 6.5 | 9.6 | 6.6

Now from value to molecule:

hEphB6-SEAP-: absorbance at 450 nm, percentage with respect to hEphA4-SEAP-His as 100% [1] [%] | hEphA6-SEAP-: absorbance at 450 nm, percentage with respect to hEphA4-SEAP-His as 100% [2] [%] | hEphA10-SEAP-: absorbance at 450 nm, percentage with respect to hEphA4-SEAP-His as 100% [3] [%] | Molecule
4.9 | 7.1 | 4.9 | 93 (antibody, V domains shown, constant regions without entry; synthetic humanized antibody light chain variable region sequence; synthetic humanized antibody heavy chain variable region sequence) VL: EIVMTQSPATLSVSPGERATLSCRASENIYRNLAWYQQKPGQSPRLLIYAATNLADGIPARFSGSGSGTEYTLTISSLQSEDFAVYYCQHFWGTPWTFGQGTKVEIK VH: QVQLVQSGSELKKPGASVKVSCKASGYTFTDYSMHWVRQAPGQGLEWMGWINTETGEPTYAQGFTGRFVFSLDTSVSTAYLQISSLKAEDTAVYYCARIPLYYYGSRYWYFDVWGQGTTVTVSS
6.4 | 8.6 | 6.4 | 94 (antibody, V domains shown, constant regions without entry; synthetic humanized antibody light chain variable region sequence; synthetic humanized antibody heavy chain variable region sequence) VL: EIVMTQSPATLSVSPGERATLSCRASENIYRNLAWYQQKPGQSPRLLIYAATNLADGIPARFSGSGSGTEYTLTISSLQSEDFAVYYCQHFWGTPWTFGQGTKVEIK VH: QVQLVQSGSELKKPGASVKVSCKASGYTFTDYSMHWVRQAPGQGLKWMGWINTETGEPTYAQGFTGRFVFSLDTSVSTAYLQISSLKAEDTAVYYCARIPLYYYGSRYWYFDVWGQGTTVTVSS
